In publication PMC8801479, “The anti-Müllerian hormone prodomain is displaced from the hormone/prodomain complex upon bivalent binding to the hormone receptor” (The Journal of Biological Chemistry, 2021) one finds Kd data, which are given here for two molecules.

Assay [1] has as its target T1, BMP-7 prodomain biotinylated through amines (human, UniProt P18075 30-292, biotin through amines (EZ-Link NHS-PEG4-Biotin)).
T1 construct: prodomain of human bone morphogenetic protein 7 (BMP-7); 90% pure, with about 10% unprocessed BMP-7; also called biotinylated prodomain; source: CHO cells; soluble BMP-7 biotinylated, prodomain eluted from Zn-chelating Sepharose with 50 mM imidazole
In words: ELISA; BMP-7 complexes with biotinylated prodomain or biotinylated GF captured on anti-BMP-7 GF mAb; bound prodomain or GF detected with SA-HRP (biotinylated prodomain preparation also added as preformed complex with SA-HRP); 0.1% Tween-20 in all incubations; Kd from modeling of the concentration dependence. Particulars: both partners purified. (In general: In an ELISA, binding on a coated surface is turned into a signal by an enzyme label.)

Assay [2] concerns the target T2, AMHR2-Fc/Fc, heterodimer of one AMHR2-Fc chain (extracellular domain of human AMHR2 fused to human IgG1 Fc) … (human, UniProt Q16671 18-149; P01857 104-330 = IgG part).
T2 construct: extracellular domain of human anti-Müllerian hormone receptor type-2 (AMHR2); Fc portion of human IgG1 (Ig gamma-1 chain constant region), the Fc-only chain; Functionally monovalent for AMHR2; also called soluble receptor; soluble AMHR2; source: human embryonic kidney 293E cells, purified from conditioned medium (Protein A Sepharose, size-exclusion chromatography); copies: 1 + 1
In words: ELISA; AMHR2-Fc/Fc (0.75 ug/ml) captured on goat antihuman Fc Ab coated on the plate; c-AMH or GF serially diluted, 2 to 4 h; bound AMH detected with biotinylated mAb-C1 (GF) or mAb-N1 (prodomain) and SA-HRP; data fit to the quadratic equation for a reversible association reaction. Particulars: both partners purified.

T1 sequence (P18075 30-292): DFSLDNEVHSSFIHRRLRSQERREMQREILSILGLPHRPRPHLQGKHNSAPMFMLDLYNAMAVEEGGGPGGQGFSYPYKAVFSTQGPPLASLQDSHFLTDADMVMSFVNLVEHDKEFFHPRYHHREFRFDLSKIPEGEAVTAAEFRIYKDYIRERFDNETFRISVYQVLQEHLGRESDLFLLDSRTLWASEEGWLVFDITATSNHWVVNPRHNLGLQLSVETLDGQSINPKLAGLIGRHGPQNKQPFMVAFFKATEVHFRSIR

B1: mature BMP-7 growth factor (unmodified mature domain) (ligand, human, UniProt P18075 293-431, looked up)
chain: STGSKQRSQNRSKTPKNQEALRMANVAENSSSDQRQACKKHELYVSFRDLGWQDWIIAPEGYAAYYCEGECAFPLNSYMNATNHAIVQTLVHFINPETVPKPCCAPTQLNAISVLYFDDSSNVILKKYRNMVVRACGCH
notes: mature growth factor (GF) domain of human BMP-7; also called BMP-7 GF; source: CHO cells; mature BMP-7 eluted from Zn-chelating Sepharose with 6 M urea
On to B1, for which, in assay [1], the Kd (commonly the constant that tells how readily two partners part at equilibrium) lay within 0.1 to 0.2 nM.

B2: anti-Müllerian hormone growth factor (AMH GF), the mature C-terminal domain (ligand, human, UniProt P03971 452-560, looked up)
chain: SAGATAADGPCALRELSVDLRAERSVLIPETYQANNCQGVCGWPQSDRNPRYGNHVVLLLKMQVRGAALARPPCCVPTAYAGKLLISLSEERISAHHVPNMVATECGCR
notes: C-terminal growth factor (GF) domain of human AMH, the mature product of cleavage at the monobasic site (R451); Disulfide-linked homodimer; also called mature GF; C-terminal GF; source: in the prodomain/GF rows it is the GF part of c-AMH (CHO cells, plasmin cleaved)
As for B2, in assay [2], the Kd is 0.03 nM.
